Our source for the Binding Signal (fold over 6E7 parental antibody) values is US20260250381A1.

Residue numbers refer to the chain shown, from its start.

To fix the notation:
B1: 6E7 variant V36 (antibody, V domains shown)
VH: EVQLVQSGAEVKKPGESLKISCKGSGYSFTSYWLAWVRQMPGKGLEWMGIIYPGDSDTRYSPSFQGQVTISADKSISTAYLQWSSLKASDTAMYFCARSRTFYYDSSDYFDYWGQGTLVTVSS
VL: DIQMTQSPSSVSASVGDRVTITCRASQGISSWLAWYQQKPGKAPKLLIYAASSRQNGVPSRFSGSGSGTDFTLTISSLQPEDFATYFCQQADSYPRTFGQGTKLEIK
B2: 6E7 variant V49 (antibody, V domains shown)
VH: B1 VH with T30N, L34I, I50T, Y60L
VL: B1 VL
B3: 6E7 variant V37 (antibody, V domains shown)
VH: B1 VH with F29H, L34I, Q65A
VL: B1 VL with R54L, N56W
B4: 6E7 variant V60 (antibody, V domains shown)
VH: B1 VH with S28H, L34I, T58V, S99Q, F110S
VL: B1 VL with R54L, N56R, Q89G, Y94F
B5: 6E7 variant V51 (antibody, V domains shown)
VH: B1 VH with L34I, T58V, S99G, Y112N
VL: B1 VL with Y94F
B6: 6E7 variant V41 (antibody, V domains shown)
VH: B1 VH with L34I, I50T, S99Q
VL: B1 VL with R54L, Y94F
B7: 6E7 variant V40 (antibody, V domains shown)
VH: B1 VH with T30G, L34I, T58V, S99Q, F110S
VL: B1 VL with R54L, N56L, S93R, Y94F
B8: 6E7 variant V53 (antibody, V domains shown)
VH: B1 VH with L34I, S63H, S99Q
VL: B1 VL with R54L, Y94F
B9: 6E7 variant V39 (antibody, V domains shown)
VH: B1 VH with T30G, L34I, S61N, S99G
VL: B1 VL with R54L, Q55V, Y94S
B10: 6E7 variant V48 (antibody, V domains shown)
VH: B1 VH with T30G, L34I, T58V, S99M
VL: B1 VL with R54L, N56T, Y94L
B11: 6E7 variant V38 (antibody, V domains shown)
VH: B1 VH with T30G, L34I, T58V, S99Q
VL: B1 VL with Y94H
B12: 6E7 variant V50 (antibody, V domains shown)
VH: B1 VH with T30G, L34I, I50V, S99Q, F110L
VL: B1 VL with Y94L
B13: 6E7 variant V61 (antibody, V domains shown)
VH: B1 VH with T30S, L34I, S61N, S99G
VL: B1 VL with R54L, Q55V, Y94L
B14: 6E7 variant V23 (antibody, V domains shown)
VH: B1 VH with L34I, S99Q
VL: B1 VL with R54L, Y94F, R96L
B15: 6E7 variant V19 (antibody, V domains shown)
VH: B1 VH with Y32S, L34I, S99Q
VL: B1 VL with R54L, Y94F
B16: 6E7 variant V7 (antibody, V domains shown)
VH: B1 VH with Y32E, L34I, S99Q
VL: B1 VL with R54L, Y94F
B17: 6E7 variant V11 (antibody, V domains shown)
VH: B1 VH with L34I, S99Q
VL: B1 VL with R54L, D92A, Y94F
B18: 6E7 variant V18 (antibody, V domains shown)
VH: B1 VH with W33H, L34I, S99Q
VL: B1 VL with R54L, Y94F
B19: 6E7 variant V32 (antibody, V domains shown)
VH: B1 VH with L34I, P62N, S99Q
VL: B1 VL with R54L, Y94F
B20: 6E7 variant V8 (antibody, V domains shown)
VH: B1 VH with L34I, R59K, S99Q
VL: B1 VL with R54L, Y94F
B21: 6E7 variant V10 (antibody, V domains shown)
VH: B1 VH with L34I, S99Q
VL: B1 VL with A50S, R54L, Y94F
B22: 6E7 variant V9 (antibody, V domains shown)
VH: B1 VH with L34I, S99Q, T101G
VL: B1 VL with R54L, Y94F
B23: 6E7 variant V31 (antibody, V domains shown)
VH: B1 VH with L34I, D57E, S99Q
VL: B1 VL with R54L, Y94F
B24: 6E7 variant V20 (antibody, V domains shown)
VH: B1 VH with L34I, I50R, S99Q
VL: B1 VL with R54L, Y94F
B25: 6E7 variant V33 (antibody, V domains shown)
VH: B1 VH with L34I, S99Q, Y104G
VL: B1 VL with R54L, Y94F
B26: 6E7 variant V21 (antibody, V domains shown)
VH: B1 VH with L34I, S99Q, Y109F
VL: B1 VL with R54L, Y94F
B27: 6E7 variant V22 (antibody, V domains shown)
VH: B1 VH with L34I, S99Q
VL: B1 VL with A50R, R54L, Y94F
B28: 6E7 variant V6 (antibody, V domains shown)
VH: B1 VH with Y32M, L34I, S99Q
VL: B1 VL with R54L, Y94F
B29: 6E7 variant V30 (antibody, V domains shown)
VH: B1 VH with Y27S, L34I, S99Q
VL: B1 VL with R54L, Y94F

For the first assay, the target named is T1, human TREM2 (human) (UniProt Q9NZC2).
T1 sequence (looked up): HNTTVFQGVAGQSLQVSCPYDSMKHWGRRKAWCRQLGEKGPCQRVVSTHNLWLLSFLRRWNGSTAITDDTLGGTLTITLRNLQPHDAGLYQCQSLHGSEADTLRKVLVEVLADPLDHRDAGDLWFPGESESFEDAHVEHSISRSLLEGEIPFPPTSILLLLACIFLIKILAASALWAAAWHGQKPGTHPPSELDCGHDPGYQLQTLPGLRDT
Description: 2nd screen, 2 nM Ab.
Turning to B1, the Binding Signal (fold over 6E7 parental antibody) was 4 fold.

Take B2: the Binding Signal (fold over 6E7 parental antibody) was 5.02 fold.

For the molecule B3, the Binding Signal (fold over 6E7 parental antibody) came out at 3.69 fold.

For B4, the Binding Signal (fold over 6E7 parental antibody) was 3.35 fold.

Take B5: the Binding Signal (fold over 6E7 parental antibody) is 1.83 fold.

As to B6, the Binding Signal (fold over 6E7 parental antibody) was found to be 0.58 fold.

In the case of B7, the Binding Signal (fold over 6E7 parental antibody) came out at 3.41 fold.

On to B8, for which the Binding Signal (fold over 6E7 parental antibody) was determined as 0.66 fold.

Consider B9, for which the Binding Signal (fold over 6E7 parental antibody) was 5.11 fold.

For B10, the Binding Signal (fold over 6E7 parental antibody) is 2.3 fold.

In the case of B11, the Binding Signal (fold over 6E7 parental antibody) was 3.44 fold.

Take B12: the Binding Signal (fold over 6E7 parental antibody) is 3.39 fold.

With B13, the Binding Signal (fold over 6E7 parental antibody) was 3.63 fold.

Another assay concerns the target T1, human TREM2 (human). Description: 1st screen, 10 nM Ab.
As for B1, the Binding Signal (fold over 6E7 parental antibody) was 3.38 fold.

For the molecule B2, the Binding Signal (fold over 6E7 parental antibody) was 6.51 fold.

For B3, the Binding Signal (fold over 6E7 parental antibody) came to 3.46 fold.

For the molecule B4, the Binding Signal (fold over 6E7 parental antibody) is 3.26 fold.

Turning to B5, the Binding Signal (fold over 6E7 parental antibody) stood at 2.81 fold.

With B6, the Binding Signal (fold over 6E7 parental antibody) worked out at 1.74 fold.

For B7, the Binding Signal (fold over 6E7 parental antibody) was 4.48 fold.

As for B8, the Binding Signal (fold over 6E7 parental antibody) was 1.25 fold.

For B9, the Binding Signal (fold over 6E7 parental antibody) came out at 6.15 fold.

As to B10, the Binding Signal (fold over 6E7 parental antibody) stood at 2.42 fold.

Turning to B11, the Binding Signal (fold over 6E7 parental antibody) turned out to be 4.34 fold.

Turning to B12, the Binding Signal (fold over 6E7 parental antibody) came out at 4.1 fold.

Regarding B13, the Binding Signal (fold over 6E7 parental antibody) worked out at 5.08 fold.

A further assay deals with T1, human TREM2 (human). Description: 2nd screen, 10 nM Ab.
Take B1: the Binding Signal (fold over 6E7 parental antibody) amounted to 3.44 fold.

For B2, the Binding Signal (fold over 6E7 parental antibody) is 6.58 fold.

Regarding B3, the Binding Signal (fold over 6E7 parental antibody) was 3.49 fold.

Turning to B4, the Binding Signal (fold over 6E7 parental antibody) was found to be 3.63 fold.

B5: the Binding Signal (fold over 6E7 parental antibody) came out at 3.18 fold.

For the molecule B6, the Binding Signal (fold over 6E7 parental antibody) worked out at 1.72 fold.

Turning to B7, the Binding Signal (fold over 6E7 parental antibody) is 4.16 fold.

Regarding B8, the Binding Signal (fold over 6E7 parental antibody) amounted to 1.17 fold.

Take B9: the Binding Signal (fold over 6E7 parental antibody) was found to be 5.81 fold.

As for B10, the Binding Signal (fold over 6E7 parental antibody) worked out at 2.54 fold.

For B11, the Binding Signal (fold over 6E7 parental antibody) came to 4.36 fold.

Take B12: the Binding Signal (fold over 6E7 parental antibody) was found to be 4.16 fold.

On to B13, for which the Binding Signal (fold over 6E7 parental antibody) was 5.22 fold.

In another assay the target is T1, human TREM2 (human). The assay is described as follows: 1st screen, 110 nM Ab.
Regarding B14, the Binding Signal (fold over 6E7 parental antibody) is 0.4 fold.

B15: the Binding Signal (fold over 6E7 parental antibody) turned out to be 0.59 fold.

B16: the Binding Signal (fold over 6E7 parental antibody) turned out to be 0.11 fold.

For B17, the Binding Signal (fold over 6E7 parental antibody) is 0.79 fold.

As to B18, the Binding Signal (fold over 6E7 parental antibody) is 0.17 fold.

As for B19, the Binding Signal (fold over 6E7 parental antibody) is 0.82 fold.

Take B20: the Binding Signal (fold over 6E7 parental antibody) amounted to 0.28 fold.

Regarding B21, the Binding Signal (fold over 6E7 parental antibody) came out at 0.76 fold.

Regarding B22, the Binding Signal (fold over 6E7 parental antibody) is 0.67 fold.

For the molecule B23, the Binding Signal (fold over 6E7 parental antibody) turned out to be 0.61 fold.

Turning to B24, the Binding Signal (fold over 6E7 parental antibody) is 0.18 fold.

Consider B25, for which the Binding Signal (fold over 6E7 parental antibody) worked out at 0.23 fold.

On to B26, for which the Binding Signal (fold over 6E7 parental antibody) was 0.76 fold.

For the molecule B27, the Binding Signal (fold over 6E7 parental antibody) came out at 0.3 fold.

Turning to B28, the Binding Signal (fold over 6E7 parental antibody) was 0.2 fold.

Consider B29, for which the Binding Signal (fold over 6E7 parental antibody) was found to be 0.79 fold.

The next assay has as its target T1, human TREM2 (human). The assay is described as follows: 2nd screen, 100 nM Ab.
Turning to B14, the Binding Signal (fold over 6E7 parental antibody) came to 0.4 fold.

As for B15, the Binding Signal (fold over 6E7 parental antibody) was 0.48 fold.

Consider B16, for which the Binding Signal (fold over 6E7 parental antibody) is 0.32 fold.

Regarding B17, the Binding Signal (fold over 6E7 parental antibody) came out at 0.42 fold.

As for B18, the Binding Signal (fold over 6E7 parental antibody) was 0.42 fold.

On to B19, for which the Binding Signal (fold over 6E7 parental antibody) was determined as 0.89 fold.

As to B20, the Binding Signal (fold over 6E7 parental antibody) was determined as 0.77 fold.

For the molecule B21, the Binding Signal (fold over 6E7 parental antibody) turned out to be 0.7 fold.

On to B22, for which the Binding Signal (fold over 6E7 parental antibody) amounted to 0.54 fold.

As to B23, the Binding Signal (fold over 6E7 parental antibody) was 0.73 fold.

As to B24, the Binding Signal (fold over 6E7 parental antibody) was determined as 0.52 fold.

For B25, the Binding Signal (fold over 6E7 parental antibody) was 0.34 fold.

Consider B26, for which the Binding Signal (fold over 6E7 parental antibody) came out at 0.68 fold.

Consider B27, for which the Binding Signal (fold over 6E7 parental antibody) stood at 0.71 fold.

Turning to B28, the Binding Signal (fold over 6E7 parental antibody) was 0.56 fold.

For the molecule B29, the Binding Signal (fold over 6E7 parental antibody) was 0.72 fold.
